# According to the PETadex activity labels (doi:10.1093/ismejo/wraf068):
# B1: unnamed (protein)
# chain: QSYQIGHTSIIYYDANRSNREIPTEIYYPAENEGDNVPVADPYSDGFPVISFGHGRMTTWSAYENIWSVLVQEGYIVAFACTEMSFIPNHTEFGLDIAFLVNRIQAEGIDSTSLFHGKIGTTSAVMGHSMGGATCFLSAQGNETITAITSFVSGNTSPSPIDAAVDITIPALLFSGSDDYMTPAEEYQIPIYEALNSDCKTLISITGGNHCQFAEYDYYCDTMEDNYPEPALTREEQHEVTNRFFISWVNFNLKGDFGAWYEFEDSLMTSEAITYMHDCDVTSVLEEPSETNIFMEYGLSNHPNPFNLTTTIKYELPKSAHISLKIYNISSKLIKTLVDEKENTGYNSVIWDGKDENGNPVPSGIYLYNIEIDGRVFSETKRMILLK
# B2: unnamed (protein)
# chain: APAGPYNVGYVIYDFPFVSPDGALQSLTTAVWYPTDAEPTPYTYGDGRATGLVSLDGPVSPAGRPFPLVVFSHGYGGGGTANLFLTKHLASWGFVVASPDYPDPDQMVRIRGGGTNTPILQYLRNALRLARTGLDFPFDDYAFRPAGLRTVIDQMLAQNADDTSALHGAIDPDRIAVAGHSLGTFTALSVAGLDPQWTDPRIRAVLALSGGVFMWPTQDFAQVSVPIMFMYGEREAGQRERIGLADVAALTRAAYDVCQPPKFMLEVKGGTHFTFGQRVYEERRAGGDASLPERQVAVINSYAAAFLRLYLRNDTSAAATLQQTDPMLTLYRHDM
# B3: unnamed (protein)
# chain: SRTRQILTEIYYPADTAGEEVPVAEPGAEGFPAVSFAHGRRMAWSAYSNFWEMLAPQGYIIVFPCTEMGLSPNHLDFALDCLFDAHKLQELNDLGTSIFYQKVGDTFAVTGHSMGGVVSFIAAIEDPTVTAIANFACGQASSYDLASVTAPALIFAGSDDYMTPVDQYQLLFYNELSSTCKALLILQGANHCQYAQYTSVCDDIEDQYPDPALTRTQQHAVTSTLLIPWLDYMLKGDEEAWTEFNVLAGDGDVTETHMICDLPFNTPTPASPPTPFVPATSSGGIGTLIVVISGTLALLSSRRK
# B4: unnamed (protein)
# chain: MSRAFSFASVAALLVFFAASIWLARLDKGGPPHTELMLEGEVPATLYLPGDGEHREAFLDAPPRDERPPAVVMMHGFSGDRLSMSGISRRLAESGYAVLNIDARGHGQNRNPFSSSWAAPDLFYPDLLAAVEFLRAYPFVDGSRIAVMGHSMGAGASLDYASRDSAIGAAVLVSGGWRIQGPHRPPNTLFLYATGDPERIRGRSRQLAAGLAGVNDPEVGRTYGDPTRGDAVRLAEVAGADHQTIVWREAAVRETVAWLDATFGVARSPGPVPDDPRAPLLPLIWAAFLLVMVGLGQVVGRLVPAQPYRPGGGRIAGLAAIAAAFALTMPLLALGTPGFILSMEVGDVFVSHFALAGIVLLVAIRMREPELIDSLFAPRLLPTLIGAAVGTIGVFTLMRVFEPVMHRLTLTPERFLVFVMAALGLLPLALAFNLLLRRGTTAGATLTSLAGRVLVLLVLFAGVQVGILSMVMLFMLPALGFVCLQFEVLAAAIYASSRNLLALSLIDAAWLAMVIAAIMPIRI
# B5: unnamed (protein)
# chain: QVYEIGHTTITFNDPSRSRDIETEIYYPADVAGENVAVSTGTFPVCVFGHGFTMSVDAYENFSDVLVPQGYIILLPSTEDGFSPNHDEFGLDLAFLVDEFQLENTNGTSLFYGAIAPETALMGHSMGGGCSFLAAESNSSVTTLVNFAAAETNTSAIAAAANITIPAVVFSGEVDPVAPPADHQIPMYNALASECKTYISINDGGHCYFANYNFYCTMGEEAMMPGGPPLTREEQQQTTLDFLSIWLDYTLKGNANALTVFNDSLASSPRITYQQDCNLTILDQINPNAEFKVYPNPADQFFILESSREIKHVLIYNSMGSICLERNKRHRIDISELPEGMYVIKAITESGSFTKKIMVLH
# B6: unnamed (protein)
# chain: WGAQNHFYETVLVDTDENPRETHLVGQIDGVFTDENYGEYEVTIYYPAINSGVSQPPDKSGAPYPAIIFAHGWLTSKELYTWIGNYCAAQGYVTLLFSVPDPTSLEAFRQSVTGITKSIDYLLVQNQGGLLSGLINTSRIGVMGHSMGAMAVLIATTEDSRIKAAVSLAPGYFGSTTKKYVEACKSIRVPIQFQAGSLDKICPPSAVETYYNAVRIPPKEIIVINGADHIQFSDAPATLWANITLEEQHETSRKYFIAWFNYYLRDDFNYYAYLFGSEARKDMENGILSSLEYVERFDC
# B7: unnamed (protein)
# chain: CGSDDDSAPGSPAGNEPFYAPDELGPFAVGRSTFTIVDADRGDRELPVDVWYPVDPEEATGAPSLYQVSILVWIFPLVFTTPSEVALDSPPVSEARRFPLIVFSHGSGGLRYQSFFLTEILASHGFVVVAPSHVGNTLLDEINGTFAPLTDMMVARPLDVSYLITRMLEKNEDAADPLYGTIDADRIGVCGHSFGGFTSLAMAAGFGADPPPDLDPEIPEDLEPVPPDPRVDAIVPIAPASSWFGDSELAGIDVPTLIIGGTLDTTTPIATENVRPYEMIPAPVFRADLDGAVHFSFSNSCDLIQGMREKGIPQALIDALLGAEFTAPCNPPSLDVEEAHRITNLYTVSLFETFLEDDSRYEKYLTEAYAEASEPNVTFYANPD
# B8: unnamed (protein)
# chain: CGGGRVTPPDSPGEQMQAELAETLPEGGGREGRESDVAEVDREGESLDQGMDAEQTLPDAIGLTEEVGESGALYEAEGEAETIDGCDLADQGGEIEAWETLPPADVQQDEQLAAGTGDPFEWGPYEIGKKDYDFYDIQRMRLVPTTVWYPALPSGQSKAKYLLVVQGKAYVEPPAEPSGAPYPLVLFSHGYGGTRFQSVSYTEYLASHGYVVAAMDHIGNTFLDFFSDDAKVAQIALERPKDVRFVYQELVKLSNSGDGVMGGMVDQDRVAVTGHSFGGYTALVVAGAEIDVSEAIAACQSGAVSDIFCAYVEYWPAGEVIKLDPPIPGVQAAIYLAPGGYSAFGDQGLAAVKVPSMIFGGTLDDTCSVAVEIEPIYQALPPPKIEVLIQNGGHMSFTNLCDLPFAQFYLDKYCDVEGMIPAQQAFAVTNGLSVAFLDLYLKGVDAAAQYLTQEAVDEEFGYVELKAE
# B9: unnamed (protein)
# chain: QSYEMGHRSEIYIDPSRGDRAIPTEIYYPSLTAGDDVPVADPPTGGFPVVAFAHGRMMPWDDYENIWGALAPQGFVVACPTTETGFMPNRTNFSLDLIYVISRIRLENSSATSPFYGKIGNASAVIGHSFGGVATFMAAIESDSITAIVTFASGQIDSVELAGISEPALIFAGTDDSLTPAATFQIPYYNNLGSSCKTLVNIIGGTHCHFAESSYYCDIGEAGFPPPGITRERQHELTNQFLIPWLDFMLNTDPVASDSFQTLLTTSGDILYLQDCDIMGVSRDDPTDLPGIIDLLAYPNPFNSAVRIGVERGEWRVENREIFDITGRMVAEIPAQSVIPDPDRESRGVVEGLDSRFHG
# B10: unnamed (protein)
# chain: MTKVNFQNKEEKRIVGILSIPKGKGPYPAVIFCHGLGSSKESPLIKTVSKKVRQVGFATFTFDCLGSRESDPYHSTAGITKRLSDLDAAIDFLAKHPRVDAERMGLYGHSLGGSVALVQASRDKRIKTAVLISPVIDFRRTGLRPINKKHMDEWDKREEILTINRKNKIVFRIPWDFFVDITSYDFVDIARKVACPVMIIHGTQDSLVPIQQSQILCQNLKNSELISLPWQKHFTRTTRKRKEAIVNSIFWFNKYLKKSATPSN
# B11: unnamed (protein)
# chain: CGKDGGIMTQDVEFTSDDGVLLKGTLYLPAGISEKLPGVTLAHMNMNDRTSWAYYAEKLALEGYVVLAFDLRGWGESGGESDFHEMYRDVMAAVTYLANFGKVDRNRIASAGASMGGMASVIAASRTSSIKAVATVSSPPAWSESEPVKVIGKLPPRPVLVIAGSSDPHLDLRAARMLFLAAKEPRQWLEIKTNKHGTDIFATPQGVELERALAMFFAENLKDSGRSSTTEKDGK
# B12: unnamed (protein)
# chain: CTDNADTDGADGAEGSATEEGGTEESGKESGEESKADLAALAAEVEEPGPWAVGTTTVETTGARDRQLPVQVWYPVDTAVAATAEPATYDFPGIEVPAGAVTGASPAPGPFPLVIYSHGNGGLRYVSSFLAEHMASHGFVVMAPDHVGNTALDTFLGSRDETDQVAEDRPVDVQAVIDAATSGQAGLEEVSPVVDGEEVAVIGHSFGGYTALALASRQAEGDDSLDAIVGLAPASSGVDDTTLEAVGVPTLLISGTLDETTPIEEDTLRPAELVSGRPLVRADIDGAGHQSFTDVCDYLGIAESQPDLPAALVEAPQEYALEGCAPELIVIDEAQRITNRLVTAFLLETLYADDSWSPLLSPGAEEGQPLALLERED
# Legend:
# PET = test: Proxy for plastic degradation [HPLC-UV] (mmol)
# BHET = test: Proxy for plastic degradation [HPLC-UV] (mmol); details: pH 8
Protein,"Proxy for plastic degradation (PET; pH 8, 30 °C)","Proxy for plastic degradation (PET; pH 8, 60 °C)",Proxy for plastic degradation (BHET),further results
B1,0,0,–,–
B2,0,0,0,–
B3,0,0,0,–
B4,0,0,0,–
B5,0,0,0,–
B6,0,–,0,"Proxy for plastic degradation (PET; pH 6): 0.11; Proxy for plastic degradation (PET; pH 6.5): 0.96; Proxy for plastic degradation (PET; pH 7): 0.47; Proxy for plastic degradation (PET; pH 7.5): 0.4; Proxy for plastic degradation (PET; pH 8, 40 °C): 0.39; Proxy for plastic degradation (PET; pH 8, 50 °C): 2.78; Proxy for plastic degradation (PET; pH 8, 70 °C): 0.05; Proxy for plastic degradation (PET; pH 8, 80 °C): 0.04"
B7,0,0,0,–
B8,0,0,0.05,–
B9,0,0,0,–
B10,0,0,0.1,–
B11,0,0,0,–
B12,0,0,0,–
